Experimental data: patent US20060253917A1 (published 2006)
Blank lines part the entries; values can stand above or below the binder they belong to. Ends that are not written are not given here.

Experiments:
OsMADS5 aa 50-160 = molecular target: T1, OsMADS5 aa 50-160 (Oryza sativa, UniProt A2Y9P0 50-160); test: Y2H; output trait library
T1 construct: bait, Gal4 DBD fusion; also called PN20770
T1 sequence: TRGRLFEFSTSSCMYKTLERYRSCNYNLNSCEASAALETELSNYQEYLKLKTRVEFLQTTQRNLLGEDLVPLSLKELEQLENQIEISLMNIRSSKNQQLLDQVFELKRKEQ
In short: (§1)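 A rice prey library, either the input trait or the output trait library, was screened with a bait clone encoding a defined amino-acid fragment of a rice protein. Screening used an automated, high-throughput yeast two-hybrid assay provided by Myriad Genetics Inc. (Salt Lake City, Utah). Retrieved prey clones had their encoding sequences compared by BLAST against databases so the interacting proteins could be identified.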

OsPP2A-2 aa 150-308 = molecular target: T2, OsPP2A-2 aa 150-308 (Oryza sativa, UniProt A2XN40 150-307); test: Y2H; output trait library
T2 construct: bait, Gal4 DBD fusion; also called PN20254
T2 sequence: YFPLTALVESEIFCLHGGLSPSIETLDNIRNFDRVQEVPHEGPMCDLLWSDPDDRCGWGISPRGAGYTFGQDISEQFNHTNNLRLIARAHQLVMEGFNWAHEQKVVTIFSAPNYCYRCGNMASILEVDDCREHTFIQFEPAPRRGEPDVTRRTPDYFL

Os005750-3115 aa 50-150 = molecular target: T3, Os005750-3115 aa 50-150 (Oryza sativa, UniProt Q6IVC3 50-150); test: Y2H; output trait library
T3 construct: bait, Gal4 DBD fusion; also called PN20466; O. sativa bZIP Transcription Factor
T3 sequence: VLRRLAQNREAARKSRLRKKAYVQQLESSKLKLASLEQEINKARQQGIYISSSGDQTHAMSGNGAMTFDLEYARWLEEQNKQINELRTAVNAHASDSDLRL
In short: as §1

OsCYCOS2 aa 50-233 = molecular target: T4, OsCYCOS2 aa 50-233 (Oryza sativa, UniProt A2YH60 50-233); test: Y2H; input trait library
T4 construct: bait, Gal4 DBD fusion; also called PN20257; O. sativa Cyclin OsCYCOS2
T4 chain: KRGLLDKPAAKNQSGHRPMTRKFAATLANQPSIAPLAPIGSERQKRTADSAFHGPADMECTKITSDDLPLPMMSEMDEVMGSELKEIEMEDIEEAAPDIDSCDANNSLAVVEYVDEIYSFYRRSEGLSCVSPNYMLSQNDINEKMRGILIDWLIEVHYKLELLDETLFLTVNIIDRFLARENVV
In short: as §1

Os018989-4003 aa 90-220 [1] = molecular target: T5, Os018989-4003 aa 90-220 (Oryza sativa); test: Y2H; output trait library
T5 construct: bait, Gal4 DBD fusion; also called PN21044
T5 chain: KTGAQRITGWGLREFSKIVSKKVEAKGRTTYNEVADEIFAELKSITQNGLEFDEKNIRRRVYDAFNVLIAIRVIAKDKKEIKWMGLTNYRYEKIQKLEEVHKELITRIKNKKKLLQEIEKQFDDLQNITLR
In short: as §1

OsCAA90866 aa 100-250 = molecular target: T6, OsCAA90866 aa 100-250 (Oryza sativa); test: Y2H; input trait library
T6 construct: bait, Gal4 DBD fusion; also called PN20311; O. sativa Chilling-Inducible Protein CAA90866
T6 chain: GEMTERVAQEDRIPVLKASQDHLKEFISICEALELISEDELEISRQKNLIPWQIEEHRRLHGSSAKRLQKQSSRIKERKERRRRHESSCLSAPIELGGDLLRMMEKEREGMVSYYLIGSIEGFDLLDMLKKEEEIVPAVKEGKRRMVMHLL
In short: as §1

Os018989-4003 aa 90-220 [2] = molecular target: T5, Os018989-4003 aa 90-220; test: Y2H; input trait library
In short: as §1

B1: OsMADS13 aa 69-230 (other)
chain: RYKKAHACGSTSGAPLIEVNAQQYYQQESAKLRHQIQMLQNTNKHLVGDNVSNLSLKELKQLESRLEKGIAKIRARKNELLASEINYMAKREIELQNDNMDLRTKIAEEEQQLQQVTVARSAAMELQAAAAAQQQQQNPFAVAAAQLDMKCFFPLNLFEAAA
notes: prey, AD fusion; also called PN20668
binding result (OsMADS5 aa 50-160): binds

B2: OsCAA33838 aa 5-155 (other)
chain: VFSRFSIYFCVLLLCHGSMAQLFNPSTNPWHSPRQGSFRECRFDRLQAFEPLRKVRSEAGVTEYFDEKNELFQCTGTFVIRRVIQPQGLLVPRYTNIPGVVYIIQGRGSMGLTFPGCPATYQQQFQQFSSQGQSQSQKFRDEHQKIHQFRQ
notes: prey, AD fusion; also called PN24775; O. sativa Glutelin CAA33838
binding result (OsPP2A-2 aa 150-308): binds

B3: OsBAB56078 aa 51-155 (other)
chain: PGRFVRKCEKTEQLLRDCVGSDIEALEKGLFGSIGSFLDDAERMTNDFLKSFGVPSINERESSSFDGQPTGRHIGGQPAGRHIEEGTAKDTKQNDYAEFSSKITD
notes: prey, AD fusion; also called PN28517; O. sativa Hypothetical protein BAB56078
binding result (OsMADS5 aa 50-160): binds

B4: OsAAG13633 aa 538-738 (other)
chain: CSAHLSIISDLEANVESLENELQEQSKRLEADIQEVMRAKVEQEQRAIKAEESLRKARWNNATTAERLQEEFKMLSSQVSSAFSANEQLLMQARKEAAELQLQKGQLEELLQKAQEDLGSIQEQHRVKVQQLLTLVDFKSKETDRLVMELKSKSDEFQNQKRCNEAKLSVLSEEIDQLKAKIENLSNERDNLFEENEQKDK
notes: prey, AD fusion; also called PN25701
binding result (Os005750-3115 aa 50-150): binds

B5: OsPN23274 aa 79-210 (other)
chain: GELPRSASLCLREVLLVLQRFKAIVADCSARSRMRLLLESDEMEAELRELNHDLATLLDLLPVVELGLADDVLDVLALASRQCRRCSPAPESEEALKASVLSLIQEIEREIVPERERLEEILVEVGINDPAS
notes: prey, AD fusion; also called Novel Protein PN23274, Similar to A. thaliana ARM Repeat-Containing Protein
binding result (OsCYCOS2 aa 50-233): binds

B6: OsAAG13633 aa 612-738 (other)
chain: LSSQVSSAFSANEQLLMQARKEAAELQLQKGQLEELLQKAQEDLGSIQEQHRVKVQQLLTLVDFKSKETDRLVMELKSKSDEFQNQKRCNEAKLSVLSEEIDQLKAKIENLSNERDNLFEENEQKDK
notes: as for B4
binding result (Os005750-3115 aa 50-150): binds

B7: PN23297 aa 980-1160 (other)
chain: LRLTLERRLRAAGEEAKSVEILKRDKLIESLSAKCAAAKSAAQSEHDKNLLLQRQLDDSLREITMLRSSKIMTAEAERENSNLKNLVESLSKNNSSLEYELTSARKGSDATMKKLKDVEGKCNHLQQNLDKLQEKLTNMENENHVLRQKALNMSPLNNMPMTTKAFPQKFATPIGLPNGEQ
notes: prey, AD fusion; also called 15451591; O. sativa Putative Myosin Heavy Chain
binding result (OsCYCOS2 aa 50-233): binds

B8: OsPN24162 aa 28-164 (other)
chain: QKLTVSTVSSSGVGLTSTAVKKGGLYTLDVSSVYKYKSTLVDVKVDTESNISTTLTVFDVLPSTKLVTSVKLPDYNSGKVEMQYFHENASFATAVGMKPSPVVEFSGTAGAQGLAFGAEAGFDTATGKFTKYSAAIG
notes: prey, AD fusion; also called Novel Protein PN24162, Porin-like, Voltage-Dependent Anion Channel Protein
binding result (OsPP2A-2 aa 150-308): binds

B9: Os000564-1102 aa 72-172 (other)
chain: SIEQKEESRGNEDRVTLIKDYRGKIETELTKICDGILKLLESHLVPSSTAPESKVFYLKMKGDYYRYLAEFKTGAERKDAAENTMVAYKAAQDIALAELPP
notes: prey, AD fusion; also called PN20072; Hypothetical protein 000564-1102
binding result (OsMADS5 aa 50-160): binds

B10: Os011994-D16 aa 99-368 (other)
chain: FGPSFGGGGSSRGRRQRRGEDVIHPLKVSLEDLYNGTSKKLSLSRNVLCAKCKGKGSKSGASMRCPGCQGSGMKITIRQLGPSMIQQMQQPCNECKGTGESINEKDRCPGCKGEKVIQEKKVLEVHVEKGMQHNQKITFPGEADEAPDTVTGDIVFVLQQKDHSKFKRKGDDLFYEHTLSLTEALCGFQFVLTHLDNRQLLIKSNPGEVVKPDQFKAINDEGMPMYQRPFMKGKLYIHFTVEFPDSLAPEQCKALEAVLPPKPASQLTEM
notes: prey, AD fusion; also called PN20618; Hypothetical Protein 011994-D16, Similar to Z. mays DnaJ protein
binding result (OsPP2A-2 aa 150-308): binds

The remaining lines, values ahead:

binding result (Os018989-4003 aa 90-220 [1]): binds
B11: OsPN22824 aa 393-494 (other)
chain: ASLVEQDLKERAAREARMGEQLRASEAARETLEAEMRRLRVQTEQWRKAAEAAPPVIGGDAHFVGHNGNGWGSPATMPDDCDDEGFGGKRKGAGIRMLGDLW
notes: prey, AD fusion; also called Novel Protein PN22824, Myosin heavy chain

binding result (OsCAA90866 aa 100-250): binds
B12: OsPN23045 aa 240-287 (other)
chain: ILSKLVQAKELLKEYVEREKKKREERSETPKSNEAVTKFDGSLNSMRH
modifications: not fully specified
notes: prey, AD fusion; also called Novel Protein PN23045

binding result (Os018989-4003 aa 90-220 [1]): binds
B13: OsAAK72891 aa 339-651 (other)
chain: ELDLQEKTEELFKFKREKGLLTLKNDVEFEPLRKKIPQIISRMDQIISKNIKMPSLCMTNDGLDERCISAKRIDSLYYENQHLRGLLADNMKDVKELSSQLSEASKEMSIQLSSEDDLLRQIAKIKEEYEDLQIEAGVRDGVYQTITRKLLDDSMNSMHDAATNFSTELSSLEAMISEKEKALCLSNEENRMLKEKIAELEQCLIQDKQEDPEVIKQESTEIILRDIEVAPHISPRRSHETPKQDMQYDELVKLNSSLEIASAALKEVENKNIDYNGIFTKNEQEKQLECILISIMKLSKEFVEIEQKLSVER
notes: prey, AD fusion; also called PN26317

binding result (Os018989-4003 aa 90-220 [2]): binds
B14: OsAAK72891 aa 342-638 (other)
chain: LQEKTEELFKFKREKGLLTLKNDVEFEPLRKKIPQIISRMDQIISKNIKMPSLCMTNDGLDERCISAKRIDSLYYENQHLRGLLADNMKDVKELSSQLSEASKEMSIQLSSEDDLLRQIAKIKEEYEDLQIEAGVRDGVYQTITRKLLDDSMNSMHDAATNFSTELSSLEAMISEKEKALCLSNEENRMLKEKIAELEQCLIQDKQEDPEVIKQESTEIILRDIEVAPHISPRRSHETPKQDMQYDELVKLNSSLEIASAALKEVENKNIDYNGIFTKNEQEKQLECILISIMKLSK
notes: prey, AD fusion; also called PN26317; O. sativa Putative Myosin Heavy Chain

binding result (OsCAA90866 aa 100-250): binds
B15: OsAAG46136 aa 92-222 (other)
chain: FGVNSGTTRFALENQAINEATFRCPDELGWKPQRAPIVSSDGSISNLRKTTVPVNEVNKSLQQMGFDVAPSDDAGRFVCNYVYYQSLRFAEQRGIKSLFVHFPLFTTISEEVQMNFVATLLEVLASQNYAQ
notes: prey, AD fusion; also called PN23186; O. sativa Putative Pyrrolidone Carboxyl Peptidase

binding result (OsCYCOS2 aa 50-233): binds
B16: PN23416 aa 130-176 (other)
chain: YFEKQRAMNQVRQRVFQQAVQGALGTLNSCLNTELHFRTIRANISIL
modifications: not fully specified
notes: prey, AD fusion; also called Chloroplast ATPase I Subunit

binding result (OsCAA90866 aa 100-250): binds
B17: OsPN23225 aa 639-792 (other)
chain: FGIRILDEAQQCIEELQCPEYYSEIVKEAINLALDKGPNFIDPLVRLLEHLHTKKIFKTEDLKTGCLLYAALLEDIGIDLPLAPALFGEVVARLSLSCSLSFEVVEEILKAVEDTYFRKGIFDAVMKTMGGNSSGQAILSSHAVVIDACNKLLK
notes: prey, AD fusion; also called Novel Protein PN23225, Similar to Tritticum aestivum Initiation Factor (iso)4f p82 Subunit

binding result (Os018989-4003 aa 90-220 [1]): binds
B18: OsE2F1 aa 191-436 (other)
chain: LQAEVENLSLKEQALDERISDMREKLRGLTEDENNQRWLYVTEDDIKGLPCFQNETLIAIKAPHGTTLEVPDPDEAGDYLQRRYRIVLRSTMGPIDVYLVSQFDEKFEDLGGGATPSGHANVPKHQPTEVFNTTNAGVGQCSNSVAVDNNIQHSQTIPQDPSASHDFGGMTRIIPSDIDTDADYWLISEGDVSITDMWKTAPDVQWDESLDTDVFLSEDVRTPSSHNQQPSAVGGPQMQVSDMHKP
notes: prey, AD fusion; also called PN19758

binding result (Os005750-3115 aa 50-150): binds
B19: OsAAG13633 aa 528-789 (other)
chain: LREQLRMQYECSAHLSIISDLEANVESLENELQEQSKRLEADIQEVMRAKVEQEQRAIKAEESLRKARWNNATTAERLQEEFKMLSSQVSSAFSANEQLLMQARKEAAELQLQKGQLEELLQKAQEDLGSIQEQHRVKVQQLLTLVDFKSKETDRLVMELKSKSDEFQNQKRCNEAKLSVLSEEIDQLKAKIENLSNERDNLFEENEQKDKELAANCQKDMFLQDRDAEIALLNKELASIKDQVQTYLEEINTLKSSKNEKE
notes: as for B4
